Measured values reported in patent US6518412B1, “Gene therapy approaches to supply apolipoprotein A-I agonists and their use to treat dyslipidemic disorders” (priority 1997, dated 2003).

Legend:
Format in all cases: physicochemical
[1] = Superose 6 gel filtration chromatography of peptide-lipid complexes; conditions: 1 mg peptide and 3 mgs DPPC, colyophilized, 0.9% NaCl
Method: One mg of peptide 149 ([…]; SEQ ID NO:149) was dissolved in 250 μl HPLC grade methanol (Perkin Elmer) in a one ml clear glass vial with cap (Waters #WAT025054). Dissolving of the peptide was aided by occasional vortexing over a period of 10 minutes at room temperature. To this mixture an aliquot containing 3 mg dipalmitoyl-phosphatidyl-choline (DPPC; Avanti Polar Lipids, 99% Purity, product #850355) from a 100 mg/ml stock solution in methanol was added. The volume of the mixture was brought to 400 μl by addition of methanol, and the mixture was further vortexed intermittently for a period of 10 minutes at room temperature. To the tube 200 μl of xylene (Sigma-Aldrich 99% pure, HPLC-grade) was added and the tubes were vortexed for 10 seconds. […]
Peptide-phospholipid complexes containing peptide 149 (SEQ ID NO:149) were prepared by colyophilization as described above. […] The chromatography was monitored by absorbance or scattering of light of wavelength 280 nm. […] The vast majority of both phospholipid and UV absorbance were recovered together in a few fractions with peaks at approximately 15.8 mls. […]
For comparison, a separate chromatogram of 20 μl of human HDL2 was run under the same conditions and using the same column as the peptide 149 complexes. […] The column eluate was monitored by absorbance or scattering of light of wavelength 254 nm. […]

[2] = Circular dichroism, degree of helicity (free, SUVs, micelles, TFE)
Method: Far UV circular dichroism spectra were recorded between 190 and 260 nm (in 0.5 nm or 0.2 nm increments) with a AVIV62DS spectrometer (AVIV Associates, Lakewood, N.J., USA) equipped with a thermoelectric cell holder and sample changer. The instrument was calibrated with (+)-10-[…]. Between one and three scans were collected for each sample, using 10 cm, 5 cm, 1 cm and 0.1 cm path length quartz Suprasil cells, respectively, for peptide concentrations of 10^−7 M to 10^−4 M. The bandwidth was fixed at 1.5 nm and the scan speed to is per wavelength step. The reported data are the mean of at least 2 or 3 independent measurements.
After background substraction, spectra were converted to molar ellipticity (θ) per residue in deg. […] dmol^−1. The peptide concentration was determined by amino acid analysis and also by absorption spectrometry on a Perkin Elmer Lambda 17 UV/Visible spectrophotometer when the peptide contained a chromophore (tryptophane, dansyl, naphtylalanine). […]
All spectra were recorded at 37° C. The stability of peptide 210 (SEQ ID NO:210) as a function of temperature (both free in buffer and in micelles) was determined by recording spectra at a series of different temperatures.
The degree of helicity of peptide 210 (SEQ ID NO:210) as a function of concentration was also determined.
The degree of helicity of the peptides in the various conditions was determined from the mean residue ellipticity at 222 nm (Chen et al., 1974, Biochemistry 13:3350-3359) or by comparing the CD spectra obtained to reference spectra available on databases (16 helical reference spectra from Provencher & Glockner, 1981, Biochemistry 20:33-37; denatured protein reference spectra from Venyaminov et al., 1993, Anal. Biochem. 214:17-24) using the CONTIN curve-fitting algorithm version 2DP, CD-1 pack (August 1982) (Provencher, 1982, Comput. Phys. Commun. 27:213-227, 229-242). Acceptable fit was determined using the statistical analysis methodology provided by the CONTIN algorithm. […]

[3] = NMR analysis of peptide structure; conditions: 25% TFE at 295 K
Method: Samples were prepared by dissolving 5 mg of peptide in 90% H2O/10% D2O containing trace amounts of 2,2-Dimethyl-2-sila-5-pentane sulfonate (DSS) as an internal chemical shift reference. Some of the samples contained trifluoroethanol (TFE) (expressed as % vol). The total sample volume was 500 μl and the concentration of peptide was approximately 5 mM.
^1H NMR spectra were acquired at 500 MHz using a Bruker DRX500 spectrometer equipped with a B-VT2000 temperature control unit. One and two-dimensional experiments were recorded using standard pulse sequences. (Two Dimensional NMR Spectroscopy, Eds. W. R. Croasmun and RMK Carlson, 1994, VCH Publishers, New York, USA). […] Two-dimensional experiments were carried out in the phase sensitive mode using time proportional phase incrementation (TPPI) and a spectral width of 6000 Hz in both dimensions. Typically, 40 scans were co-added for 400 t1 increments with 2048 data points. […]
Complete proton resonance assignments were obtained by applying the sequential assignment technique using DQFCOSY, TOCSY and NOESY spectra as described in the literature (Wuthrich, NMR of Proteins and Nucleic Acids, 1986, John Wiley & Sons, New York, USA). Secondary chemical shifts were calculated for HN and Ha protons by subtracting the tabulated random coil chemical shifts (Wishart and Sykes, 1994, Method. Enz. 239:363-392) from the corresponding experimental values.

Sequence	Stokes' diameter [1]	stability of α-helical structure with temperature [2]	helicity in the presence of TFE ([2]; TFE)	helicity ([2]; in micelles)	conformation from Hα secondary shifts [3]
PVLELFENLWERLLDALQKKLK [peptide 149]	87 Angstroms				
PVLDLFRELLEELKQKLK [peptide 210]		completely stable	increases	63%	highly helical conformation
